For this test, the target named is SCNN1A, Sodium Channel Epithelial 1 Alpha Subunit (Isoform 1, UniProt P37088-1) (human) (UniProt P37088). Briefly: cell-based or functional assay.
SCNN1A, Sodium Channel Epithelial 1 Alpha Subunit, sequence (P37088 whole entry, canonical isoform, one chain of several): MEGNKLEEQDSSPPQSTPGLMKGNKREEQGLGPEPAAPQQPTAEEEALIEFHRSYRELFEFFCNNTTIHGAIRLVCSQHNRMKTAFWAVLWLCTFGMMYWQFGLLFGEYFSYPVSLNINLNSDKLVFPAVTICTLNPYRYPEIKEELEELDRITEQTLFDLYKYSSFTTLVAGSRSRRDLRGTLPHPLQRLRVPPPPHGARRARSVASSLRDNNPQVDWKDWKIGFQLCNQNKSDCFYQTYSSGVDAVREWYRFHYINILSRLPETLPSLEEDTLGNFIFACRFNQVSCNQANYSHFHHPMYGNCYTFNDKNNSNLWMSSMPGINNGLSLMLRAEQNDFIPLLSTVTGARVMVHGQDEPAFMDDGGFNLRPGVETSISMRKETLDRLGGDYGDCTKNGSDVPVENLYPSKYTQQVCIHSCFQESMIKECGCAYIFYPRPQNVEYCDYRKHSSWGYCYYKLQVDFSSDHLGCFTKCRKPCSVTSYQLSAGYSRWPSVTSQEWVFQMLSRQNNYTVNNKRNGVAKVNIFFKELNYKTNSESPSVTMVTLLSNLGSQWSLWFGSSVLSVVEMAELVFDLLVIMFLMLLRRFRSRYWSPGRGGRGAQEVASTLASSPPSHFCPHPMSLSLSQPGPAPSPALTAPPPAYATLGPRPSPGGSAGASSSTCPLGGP

“SW.3G1 T-cell receptor (γ3δ1 TCR, TRGV3/TRDV1) of T-cell clone SW.3G1” returned a killing in long term killing assay, LCL.174 wildtype cells of 100% and a lysis in long term killing assay, LCL.174 SCNN1A knockout cell lines (gRNA-1 or gRNA-2) of less than 5%.

For the origin of these results see patent US20200316124A1.
